Patent US20050123936A1, “Method, composition, and kit to design, evaluate, and/or test compounds that modulate regulatory factor binding to nucleic acids” (priority 2003, published 2005)
Entries after “also recorded” stand apart in the source; their conditions may differ. One block for each molecule: values may come before it. Ends that are not written are not given here.

Experiments:
Exd = molecular target: T1, Exd (Drosophila melanogaster, UniProt P40427); experiment: Example 7 EMSA: recruitment of Exd by linker compounds; format: binding; settings: 50 nM conjugate pre-incubated with target DNA; data not shown
T1 construct: comprising the homeodomain and the extended fourth helix (residues 238-324); made in house
T1 sequence (P40427 238-324): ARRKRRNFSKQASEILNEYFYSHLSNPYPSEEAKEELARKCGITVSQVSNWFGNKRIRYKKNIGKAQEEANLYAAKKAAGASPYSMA
Description: The assays were performed with 50 nM of the conjugate pre-incubated with target DNA (thus to bind the anchor moiety to the target nucleic acid) followed by the addition and incubation with Exd.
To determine the effects of longer linker on binding, the ability of compounds using linkers 1, 2 and 4 to recruit Exd at three different temperatures was investigated.

[1] = molecular target: TGGTCA matched site on 250-bp EcoRI/PvuII restriction fragment from plasmid pDEH9; experiment: Quantitative DNase I footprint titration, matched site; format: binding; settings: 12 h at 22° C., TKMC buffer pH 7.0, read-out: Equilibrium Dissociation Constants Kd, TGGTCA
Description: (§1) Quantitative DNaseI footprinting can be used to determine the equilibrium association constants for binding to match and mismatch sites. Footprinting experiments are generally performed on 3′- and/or 5′-^32P end restriction fragments derived from plasmids. 3′-shifted cleavage patterns are consistent with location of the polyamide in the minor groove. Typical reaction conditions are: 10 mM Tris-HCl, 10 mM KCl, 10 mM MgCl2, 5 mM CaCl2, pH 7.0, and 22° C. See Brenowitz et al. (1986). Methods Enzymol. 130:132-181; Fox & Waring (1984) Nucleic Acids Res. 12:9271-9285; and Brenowitz et al. (1986) Proc. Natl. Acad. Sci. U.S.A. 83: 8462-8466.
DNase I Footprinting: Dissociation constants for the DNA binding of compounds 1, 2 and 3 were obtained following published protocols. All reactions were carried out in 400 μL total volume employing 20 kcpm of a 3′-radiolabelled 250-bp restriction fragment from the plasmid pDEH9 (FIG. 1a) (SEQ. ID. NO: 4). […]
FIGS. 1b, 1c, and 1d are quantitative DNAse I footprint titration experiments for compounds 1, 2 and 3 on the 3′^−32 P-labeled 250-bp EcoRI/PvuII restriction fragment from the plasmid pDEH9. […]
The DNA-binding properties of the compounds 1-3 were investigated by quantitative DNase 1 footprinting assays. […]

[2] = molecular target: T2, extradenticle (Exd) protein (residues 238-324) (Drosophila melanogaster, UniProt P40427); experiment: EMSA: recruitment of Exd to its cognate DNA site by polyamides 1-3; format: binding; settings: saturating 50 nM compound; Exd 0-100 nM; listed as compound 3
T2 construct: comprising the homeodomain and the extended fourth helix (residues 238-324); made in house
T2 sequence (P40427 238-324): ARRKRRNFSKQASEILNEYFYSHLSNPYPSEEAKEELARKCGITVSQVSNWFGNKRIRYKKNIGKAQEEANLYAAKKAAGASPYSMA
Description: (§2) Protein expression: Drosophila extradenticle (Exd) protein comprising the homeodomain and the extended fourth helix (residues 238-324), as well as ultrabithorax (Ubx) protein homeodomain (residues 233-313 of the Ubx isoform IVa) were expressed and purified after Passner & Aggarwal. The purified proteins Exd and Ubx were used for EMSA studies as described below.
For the templates, the DNA oligonucleotides depicted in FIGS. 2a, 2b, 2c, and 2d were used, SEQ. ID NOS: 5, 6, 7, and 8, respectively. The DNA upper strand was annealed with the respective matching lower strand and both strands were 5′-labeled with γ-^32P-ATP and polynucleotide kinase, using standard procedures.
Gel-shift experiments: The master mix contained 50% BSA/50% glycerol, reaction buffer (150 mM potassium glutamate, 50 mM HEPES pH 7.0, 1 mM DTT, and 5′-end labeled DNA (^32P) The final concentrations in the samples were 100 ng/μL BSA and 10% glycerol. Polyamides were kept in subdued lighting whenever possible. Upon addition of the polyamide to 1 pM DNA, the samples were incubated at 25 °C. for 30 minutes in a 20 μL reaction. Next, Exd was added to the samples and incubated for 1 hour at 4° C. A 9% acrylamide/3% glycerol gel was pre-run for 15 min prior to loading. In each lane 15 μL of a 20 μL reaction were loaded while the gel was running to prevent the samples from being diluted. The gels were run at 4° C./185 V. Gels were dried, exposed to a phosphorimager screen, and visualized using a Molecular Dynamics phosphorimager.
FIGS. 3a and 3b: EMSA studies with polyamides 1-3, Exd and Ubx. In FIG. 3a, each polyamide binds and decreases the mobility of free DNA (lanes 2-18). […] In lanes 2-6,8-12, 14-18, Exd was added in following concentrations: 0, 3, 10, 30, 100 nM. Lanes 19 and 20 contained DNA bearing the Exd-Ubx binding site that was used in X-ray crystal structure determination (see methods above for sequence). In the reaction shown in lane 20, 275 nM Ubx and 30 nM Exd were incubated with DNA. […]

[3] = tested on: TGGCCA mismatch site on 250-bp EcoRI/PvuII restriction fragment from plasmid pDEH9; experiment: Quantitative DNase I footprint titration, mismatch site TGGCCA; format: binding
Description: as §1
(§3) DNase I Footprinting: Dissociation constants for the DNA binding of compounds 1, 2 and 3 were obtained following published protocols. All reactions were carried out in 400 μL total volume employing 20 kcpm of a 3′-radiolabelled 250-bp restriction fragment from the plasmid pDEH9 (FIG. 1a) (SEQ. ID. NO: 4). No carrier DNA was used in the equilibration, and the solutions were allowed to equilibrate for 12 h at 22° C. in TKMC buffer (10 mM TRIS, 10 mM KCl, […], 5 mM CaCl2 pH 7.0) prior to the DNase I digestion. Reaction products (8 kcpm) were resolved on denaturing 8% polyacrylamide sequencing gels run at 55 W.
(§4) FIGS. 1b, 1c, and 1d are quantitative DNAse I footprint titration experiments for compounds 1, 2 and 3 on the 3′^−32 P-labeled 250-bp EcoRI/PvuII restriction fragment from the plasmid pDEH9. Lane 1: Intact DNA. Lane 2: A-reaction. Lane 3: G-reaction. Lane 4: DNAse 1 standard.
(§5) The DNA-binding properties of the compounds 1-3 were investigated by quantitative DNase 1 footprinting assays. The equilibrium binding constants of each of the compounds for a matched versus three single base pair mismatch sites is compiled in Table 1. The lower strand sequence is shown in the header. Mismatched base pairs are underlined. The residue under the YPWM peptide is in bold. Relative specificities are given in square brackets.

[4] = tested on: AGCTCA mismatch site on 250-bp EcoRI/PvuII restriction fragment from plasmid pDEH9; experiment: Quantitative DNase I footprint titration, mismatch site AGCTCA; format: binding
Description: as §1, §3, §4, §5

[5] = tested on: TGGGCA mismatch site on 250-bp EcoRI/PvuII restriction fragment from plasmid pDEH9; experiment: Quantitative DNase I footprint titration, mismatch site TGGGCA; format: binding
Description: as §1, §3, §4, §5

[6] = molecular target: Ultrabithorax (Ubx) homeodomain, isoform IVa (Drosophila, UniProt P83949-5 P83949-5:233-313); experiment: EMSA; Ubx alone; 150 mM K glutamate, 50 mM HEPES pH 7.0, 4 C; settings: label: 5'-32P both strands
Description: Gel-shift studies with the Ubx protein were performed under identical buffer conditions using the duplex oligonucleotide listed in FIG. 2d. Ubx was added to the reaction mixture containing ³²P-endlabeled duplex DNA and incubated at 4° C. for 30 min. […] The complexes were resolved under similar gel conditions as those described for DNA-polyamide-Exd complexes above.

[7] = molecular target: T3, Drosophila extradenticle (Exd) protein comprising the homeodomain and the extended fourth helix (residues … (Drosophila, UniProt P40427 238-324)); experiment: EMSA (gel shift), 32P-labelled duplex DNA pre-bound with 50 nM compound 3, Exd titrated, 4 °C
T3 sequence (looked up): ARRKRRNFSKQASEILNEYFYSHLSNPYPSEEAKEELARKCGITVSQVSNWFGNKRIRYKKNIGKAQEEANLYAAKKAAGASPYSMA
Description: (§6) Upon addition of the polyamide to 1 pM DNA, the samples were incubated at 25 °C. for 30 minutes in a 20 μL reaction. […] A 9% acrylamide/3% glycerol gel was pre-run for 15 min prior to loading. In each lane 15 μL of a 20 μL reaction were loaded while the gel was running to prevent the samples from being diluted. The gels were run at 4° C./185 V. Gels were dried, exposed to a phosphorimager screen, and visualized using a Molecular Dynamics phosphorimager.
(§7) A 47-base-pair duplex DNA with one cognate site was incubated with saturating concentrations (50 nM) of each compound.

[8] = molecular target: T3, Drosophila extradenticle (Exd) protein …; experiment: EMSA, recruitment of Exd to its cognate DNA site by DNA-bound compound 2 compared with Ubx
Description: as §6, §7

[9] = molecular target: T3, Drosophila extradenticle (Exd) protein …; experiment: EMSA, Exd titrated on the DNA/compound 2 binary complex (ternary complex), 4 °C; Exd (residues 238-324) on the DNA/compound 2 complex, EMSA
Description: (§8) The gels were run at 4° C./185 V. Gels were dried, exposed to a phosphorimager screen, and visualized using a Molecular Dynamics phosphorimager.
as §7

[10] = molecular target: T3, Drosophila extradenticle (Exd) protein …; experiment: EMSA, Exd on DNA with and without compound 2
Description: as §8, §7

[11] = molecular target: T3, Drosophila extradenticle (Exd) protein …; experiment: EMSA, compared with Exd on the Ubx-DNA complex
Description: as §6, §7

[12] = molecular target: T3, Drosophila extradenticle (Exd) protein …; experiment: EMSA, conjugate pre-incubated with target DNA, then Exd
[13] = tested on: duplex DNA with composite Ubx-Exd binding site (FIG. 2d); experiment: EMSA: Ubx binding to its cognate DNA
Description: (§9) Gel-shift studies with the Ubx protein were performed under identical buffer conditions using the duplex oligonucleotide listed in FIG. 2d. Ubx was added to the reaction mixture containing ^32P-endlabeled duplex DNA and incubated at 4° C. for 30 min. Subsequently Exd was added and the reaction was further incubated for 60 min at 4° C. The complexes were resolved under similar gel conditions as those described for DNA-polyamide-Exd complexes above. […] Under saturating concentrations of Ubx (325 nM) the Kd of Exd for the binary [Ubx-DNA] complex was 2-3 fold larger than the affinity of Exd for the polyamide-DNA binary complex.

[14] = molecular target: T4, extradenticle (Exd) protein (Drosophila melanogaster, UniProt P40427); experiment: EMSA: Exd binding to the binary Ubx-DNA complex; settings: saturating concentrations of Ubx (325 nM)
T4 construct: comprising the homeodomain and the extended fourth helix (residues 238-324); made in house
T4 sequence (P40427 238-324): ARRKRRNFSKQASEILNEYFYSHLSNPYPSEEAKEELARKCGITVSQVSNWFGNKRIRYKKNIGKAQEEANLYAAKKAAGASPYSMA
Description: as §2, §9

[15] = relative to matched site TGGTCA

Chain of Ultrabithorax (Ubx) homeodomain, isoform IVa (P83949 other isoform, or with tags, fused parts or gaps): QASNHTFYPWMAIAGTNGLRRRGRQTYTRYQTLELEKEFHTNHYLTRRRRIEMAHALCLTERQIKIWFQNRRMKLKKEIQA

Kd [1]: 0.86 ± 0.32 nM | Relative specificity (square brackets), TGGCCA [3, 15]: 14 | Kd ([3]; single base pair mismatch site, 22° C., TKMC buffer, read-out: Equilibrium Dissociation Constants Kd, TGGCCA): 12 ± 5 nM | Relative specificity (square brackets), AGCTCA [4, 15]: 16 | Kd ([4]; single base pair mismatch site, 22° C., TKMC buffer, read-out: Equilibrium Dissociation Constants Kd, AGCTCA): 14 ± 5 nM | Relative specificity (square brackets), TGGGCA [5, 15]: 116 | Kd ([5]; single base pair mismatch site, 22° C., TKMC buffer, read-out: Equilibrium Dissociation Constants Kd, TGGGCA): ≥ 0.1 nM
Molecule: Cmpd 3 (FYPAAKG)
ability to stabilize Exd binding to the adjacent cognate DNA site (TGAT) (Exd): Neither the parent polyamide lacking the YPWM hook, nor the polyamide bearing an altered hook (FYPAAK) (SEQ. ID. NO: 14) was able to stabilize Exd binding | ability to recruit Exd to its cognate DNA site (Exd binding) [2]: No binding was observed; also recorded: Neither compound 3 nor 1 showed any ability to recruit Exd

B1: Composite Ubx-Exd EMSA duplex (FIG. 2d) (dsDNA)
DNA 1: GATCTCCCGGCGAATGATTTATGGTATCGGCGCCACTGTCACCCGGA
DNA 2: TCCGGGTGACAGTGGCGCCGATACCATAAATCATTCGCCGGGAGATC
Kd [6]: 200 nM

binding result [7]: no binding (tested: 100 nM)
B2: Compound 3: hairpin polyamide 1 conjugated to Ac-Phe-Tyr-Pro-Ala-Ala-Lys-Gly- (peptide)
peptide: Ac-FYPAAKG
modifications: not fully specified (C-terminus); printed as Ac-Phe-Tyr-Pro-Ala-Ala-Lys-Gly-; also: C-terminal Gly amide-bonded to propylamine side chain of polyamide 1
notes: Non-functional (Trp-Met to Ala-Ala) control conjugate; also called conjugate 3; polyamide 3

fold lower concentration required to recruit Exd, against its natural Hox partner (Ubx) [8]: 20 fold | Kd [9]: 4.4 nM | fold improvement of the affinity of Exd for its cognate site against DNA alone [10]: ≥ 200 fold | fold of Kd of Exd against that for the DNA-Ubx complex [11]: 2 fold
B3: Compound 2: hairpin polyamide 1 conjugated to Ac-Phe-Tyr-Pro-Trp-Met-Lys-Gly- (peptide)
peptide: Ac-FYPWMKG
modifications: not fully specified (C-terminus); printed as Ac-Phe-Tyr-Pro-Trp-Met-Lys-Gly-; also: C-terminal Gly amide-bonded to propylamine side chain of polyamide 1
notes: Peptide-polyamide conjugate; The peptide carries the Hox YPWM motif; also called conjugate 2; polyamide 2

binding result [12]: no binding (tested: 50 nM conjugate)
Molecule: FYPAAK (also: conjugated to hairpin polyamide, linker not given here) [polyamide bearing an altered hook (FYPAAK)]

affinity of Ubx for its DNA site lower than that of compound 2 for its respective site [13]: ≥ 40 fold | Kd ([13]; 4° C.): 200 ± 25 nM | Kd of Exd for the binary [Ubx-DNA] complex, larger than for the polyamide-DNA binary complex [14]: 2-3 fold
B4: Ubx: Drosophila ultrabithorax (Ubx) protein homeodomain (residues 233-313 of the Ubx isoform IVa) (protein, UniProt P83949 233-313, looked up, fragment)
chain: QASNHTFYPWMAIAGECPEDPTKSKIRSDLTQYGGISTDMGKRYSESLAGSLLPDWLGTNGLRRRGRQTYTRYQTLELEKE
modifications: isoform IVa
